{"source": "paper PMC3156243", "about": "“Properties and Crystal Structure of Methylenetetrahydrofolate Reductase from Thermus thermophilus HB8” (PLoS ONE, 2011)", "proteins": {"B1": {"name": "Methylenetetrahydrofolate reductase (MTHFR) from Thermus thermophilus HB8, C-terminally hexa-His-tagged wildtype (enzyme, UniProt Q5SLG6 1-296, looked up)", "chain": "MKIRDLLKARRGPLFSFEFFPPKDPEGEEALFRTLEELKAFRPAFVSITYGAMGSTRERSVAWAQRIQSLGLNPLAHLTVAGQSRKEVAEVLHRFVESGVENLLALRGDPPRGERVFRPHPEGFRYAAELVALIRERYGDRVSVGGAAYPEGHPESESLEADLRHFKAKVEAGLDFAITQLFFNNAHYFGFLERARRAGIGIPILPGIMPVTSYRQLRRFTEVCGASIPGPLLAKLERHQDDPKAVLEIGVEHAVRQVAELLEAGVEGVHFYTLNKSPATRMVLERLGLRPASGQP", "notes": "Methylenetetrahydrofolate reductase (MetF homologue) of Thermus thermophilus HB8, clone TTHA0327, wildtype gene amplified by PCR into pET23; the original stop codon was mutated to Ala before the C-terminal hexa-His tag; One polypeptide in two cofactor states: as purified about one FAD per dimer (apo- plus holo-subunit), after FAD treatment one FAD per subunit; The stop codon is replaced by Ala, …"}}, "biological_target": "the molecule itself", "test": "SEC-MALS; as-purified MTHFR; HPLC on TSK-gel G3000SWxl with multi-angle light scattering and refractive index detectors; 50 mM Tris-HCl pH 6.8, 0.2 M NaCl; 0.5 ml/min; 0.1 mg protein/run"}
{"protein": "B1", "values": [{"measurement": "stoichiometry N", "value": 2}]}
